Reference: the supplement of paper PMC11246515
± gives the standard deviation of the averaged measurements.

Test: total protein half-life in vivo (active degradation + dilution); higher = more stable protein
[1] = E. coli NCM3722 delta-clpP delta-lon delta-hslV, growth: N-lim chemostat, doubling time 6 h
[2] = E. coli NCM3722 delta-clpP, growth: N-lim chemostat, doubling time 6 h
[3] = E. coli NCM3722 delta-hslV, growth: N-lim chemostat, doubling time 6 h
[4] = E. coli NCM3722 delta-lon, growth: N-lim chemostat, doubling time 6 h
[5] = E. coli NCM3722 delta-smpB, growth: N-lim chemostat, doubling time 6 h
[6] = wild type E. coli NCM3722, growth: C-lim chemostat, doubling time 6 h
[7] = wild type E. coli NCM3722, growth: C-lim chemostat, doubling time 12 h
[8] = wild type E. coli NCM3722, growth: N-lim chemostat, doubling time 6 h
[9] = wild type E. coli NCM3722, growth: N-lim chemostat, doubling time 12 h
[10] = wild type E. coli NCM3722, growth: P-lim chemostat, doubling time 6 h
[11] = wild type E. coli NCM3722, growth: P-lim chemostat, doubling time 12 h
[12] = wild type E. coli NCM3722, growth: C-lim chemostat, doubling time 3 h

Row | Sequence | total protein half-life in vivo [1] [h] | total protein half-life in vivo [2] [h] | total protein half-life in vivo [3] [h] | total protein half-life in vivo [4] [h] | total protein half-life in vivo [5] [h] | total protein half-life in vivo [6] [h] | total protein half-life in vivo [7] [h] | total protein half-life in vivo [8] [h] | total protein half-life in vivo [9] [h] | total protein half-life in vivo [10] [h] | total protein half-life in vivo [11] [h] | total protein half-life in vivo [12] [h]
1 | MKSMNIAASSELVSRLSSHRRVVALGDTDFTDVAAVVITAADSRSGILALLKRTGFHLPVFLYSEHAVELPAGVTAVINGNEQQWLELESAACQYEENLLPPFYDTLTQYVEMGNSTFACPGHQHGAFFKKHPAGRHFYDFFGENVFRADMCNADVKLGDLLIHEGSAKDAQKFAAKVFHADKTYFVLNGTSAANKVVTNALLTRGDLVLFDRNNHKSNHHGALIQAGATPVYLEASRNPFGFIGGIDAHCFNEEYLRQQIRDVAPEKADLPRPYRLAIIQLGTYDGTVYNARQVIDTVGHLCDYILFDSAWVGYEQFIPMMADSSPLLLELNENDPGIFVTQSVHKQQAGFSQTSQIHKKDNHIRGQARFCPHKRLNNAFMLHASTSPFYPLFAALDVNAKIHEGESGRRLWAECVEIGIEARKAILARCKLFRPFIPPVVDGKLWQDYPTSVLASDRRFFSFEPGAKWHGFEGYAADQYFVDPCKLLLTTPGIDAETGEYSDFGVPATILAHYLRENGIVPEKCDLNSILFLLTPAESHEKLAQLVAMLAQFEQHIEDDSPLVEVLPSVYNKYPVRYRDYTLRQLCQEMHDLYVSFDVKDLQKAMFRQQSFPSVVMNPQDAHSAYIRGDVELVRIRDAEGRIAAEGALPYPPGVLCVVPGEVWGGAVQRYFLALEEGVNLLPGFSPELQGVYSETDADGVKRLYGYVLK | 4.97 ± 0.45 | 4.68 ± 0.86 | 4.28 ± 0.14 | 4.69 ± 0.36 | 4.34 ± 0.089 | 5.18 ± 0.13 | 8.46 ± 1.1 | 4.44 ± 0.13 | 8.46 ± 0.59 | 6.15 ± 0.14 | 12.3 ± 1.8 | 
2 | MKSRAAVAFAPGKPLEIVEIDVAPPKKGEVLIKVTHTGVCHTDAFTLSGDDPEGVFPVVLGHEGAGVVVEVGEGVTSVKPGDHVIPLYTAECGECEFCRSGKTNLCVAVRETQGKGLMPDGTTRFSYNGQPLYHYMGCSTFSEYTVVAEVSLAKINPEANHEHVCLLGCGVTTGIGAVHNTAKVQPGDSVAVFGLGAIGLAVVQGARQAKAGRIIAIDTNPKKFDLARRFGATDCINPNDYDKPIKDVLLDINKWGIDHTFECIGNVNVMRAALESAHRGWGQSVIIGVAVAGQEISTRPFQLVTGRVWKGSAFGGVKGRSQLPGMVEDAMKGDIDLEPFVTHTMSLDEINDAFDLMHEGKSIRTVIRY | 5.33 ± 0.98 | 4.73 ± 0.68 | 4.43 ± 0.28 | 4.95 ± 0.45 | 4.24 ± 0.45 | 5.87 ± 0.69 | 10.1 ± 1 | 4.1 ± 0.47 | 6.819 ± 0.021 | 5.6 ± 0.19 | 11.4 ± 0.52 | 2.68 ± 0.26
3 | MKSSTTIITAYFDIGRGDWTANKGFREKLARSVDVYFSYFERLAALENEMIIFTSPDLKPRVEAIRNGKPTTVIVIDIKKKFRYIRSRIEKIQKDESFTNRLEPRQLKNPEYWSPEYVLVCNLKAYFVNKAINMGLVKTPLVAWIDFGYCHKPNVTRGLKIWDFPFDESKMHLFTIKKGLTVTSQQQVFDFMIGNHVYIIGGAIVGSQHKWKEFYKLVLESQKITLNNNIVDDDQGIFVMCYYKRPDLFNLNYLGRGKWFDLFRCFRSNTLGAKMQALRIFLSRK | 6.61 ± 0.098 | 6.18 ± 0.28 | 5.99 ± 0.11 | 6.49 ± 0.38 | 5.52 ± 0.26 | 5.548 ± 0.042 | 10.7 ± 0.57 | 5.82 ± 0.57 | 11.6 ± 0.62 | 5.85 ± 0.86 | 11.4 ± 0.17 | 2.82 ± 0.13
4 | MKTETPSVKIVAITADEAGQRIDNFLRTQLKGVPKSMIYRILRKGEVRVNKKRIKPEYKLEAGDEVRIPPVRVAEREEEAVSPHLQKVAALADVILYEDDHILVLNKPSGTAVHGGSGLSFGVIEGLRALRPEARFLELVHRLDRDTSGVLLVAKKRSALRSLHEQLREKGMQKDYLALVRGQWQSHVKSVQAPLLKNILQSGERIVRVSQEGKPSETRFKVEERYAFATLVRCSPVTGRTHQIRVHTQYAGHPIAFDDRYGDREFDRQLTEAGTGLNRLFLHAAALKFTHPGTGEVMRIEAPMDEGLKRCLQKLRNAR [P0AA39] | 5.63 ± 0.067 | 5.2 ± 0.19 | 5.84 ± 1 | 5.68 ± 0.26 | 5.43 ± 0.88 | 5.78 ± 0.14 | 9.77 ± 0.8 | 5.21 ± 0.31 | 9.13 ± 0.59 | 5.56 ± 0.089 | 11.6 ± 0.92 | 3.01 ± 0.092
5 | MKTFSDRWRQLDWDDIRLRINGKTAADVERALNASQLTRDDMMALLSPAASGYLEQLAQRAQRLTRQRFGNTVSFYVPLYLSNLCANDCTYCGFSMSNRIKRKTLDEADIARESAAIREMGFEHLLLVTGEHQAKVGMDYFRRHLPALREQFSSLQMEVQPLAETEYAELKQLGLDGVMVYQETYHEATYARHHLKGKKQDFFWRLETPDRLGRAGIDKIGLGALIGLSDNWRVDSYMVAEHLLWLQQHYWQSRYSVSFPRLRPCTGGIEPASIMDERQLVQTICAFRLLAPEIELSLSTRESPWFRDRVIPLAINNVSAFSKTQPGGYADNHPELEQFSPHDDRRPEAVAAALTAQGLQPVWKDWDSYLGRASQRL | 4.35 ± 0.4 | 0.761 ± 0.12 | 0.71 ± 0.041 | 1.45 ± 0.13 | 0.7458 ± 0.0057 | 1.02 ± 0.03 | 0.988 ± 0.12 | 0.86 ± 0.0097 | 1.08 ± 0.084 | 1.09 ± 0.25 | 1.93 ± 0.64 | 0.948 ± 0.075
6 | MKTGMFTCGHQRLPIEHAFRDASELGYDGIEIWGGRPHAFAPDLKAGGIKQIKALAQTYQMPIIGYTPETNGYPYNMMLGDEHMRRESLDMIKLAMDMAKEMNAGYTLISAAHAGYLTPPNVIWGRLAENLSELCEYAENIGMDLILEPLTPYESNVVCNANDVLHALALVPSPRLFSMVDICAPYVQAEPVMSYFDKLGDKLRHLHIVDSDGASDTHYIPGEGKMPLRELMRDIIERGYEGYCTVELVTMYMNEPRLYARQALERFRALLPEDER | 7.09 |  |  |  |  |  | 6.86 |  |  |  |  | > 4
